{"source": "ChEMBL document CHEMBL1148676", "about": "“Fluorogenic ester substrates to assess proteolytic activity” (Bioorg Med Chem Lett, 2006)", "key": {"[1]": {"target": "Cathepsin B (Homo sapiens) (UniProt P07858)", "assay": "(§1) Affinity to cathepsin B"}, "[2]": {"test_system": "COc1ccc2c(c1)Oc1cc(OC(=O)[C@H](C)NC(=O)OCC3c4ccccc4-c4ccccc43)ccc1C21OC(=O)c2ccccc21", "assay": "as §1", "conditions": "Homo sapiens"}, "[3]": {"test_system": "CC[C@H](NC(=O)OCC1c2ccccc2-c2ccccc21)C(=O)Oc1ccc2c(c1)Oc1cc(OC)ccc1C21OC(=O)c2ccccc21", "assay": "as §1", "conditions": "Homo sapiens"}, "[4]": {"test_system": "COc1ccc2c(c1)Oc1cc(OC(=O)CNC(=O)OCC3c4ccccc4-c4ccccc43)ccc1C21OC(=O)c2ccccc21", "assay": "as §1", "conditions": "Homo sapiens"}, "[5]": {"test_system": "CC[C@H](NC(=O)OC(C)(C)C)C(=O)Oc1ccc2c(c1)Oc1cc(OC)ccc1C21OC(=O)c2ccccc21", "assay": "as §1", "conditions": "Homo sapiens"}, "[6]": {"test_system": "COc1ccc2c(c1)Oc1cc(OC(=O)[C@H](C)NC(=O)OC(C)(C)C)ccc1C21OC(=O)c2ccccc21", "assay": "as §1", "conditions": "Homo sapiens"}, "[7]": {"test_system": "COc1ccc2c(c1)Oc1cc(OC(=O)[C@H](CC(C)C)NC(=O)OC(C)(C)C)ccc1C21OC(=O)c2ccccc21", "assay": "as §1", "conditions": "Homo sapiens"}}, "note": "Activity calls are given as the source filed them. The calls are words filed in the database; no cut-off is given here."}
{"compound": "COc1ccc2c(c1)Oc1cc(OC(C)=O)ccc1C21OC(=O)c2ccccc21", "note": "(centres undefined)", "values": [{"measurement": "Activity", "setting": "[1]", "result": "inactive"}]}
{"compound": "COc1ccc2c(c1)Oc1cc(OS(=O)(=O)c3ccc(C)cc3)ccc1C21OC(=O)c2ccccc21", "note": "(centres undefined)", "values": [{"measurement": "Activity", "setting": "[1]", "result": "inactive"}]}
{"compound": "COc1ccc2c(c1)Oc1cc(OS(=O)(=O)c3ccc([N+](=O)[O-])cc3)ccc1C21OC(=O)c2ccccc21", "note": "(centres undefined)", "values": [{"measurement": "Activity", "setting": "[1]", "result": "inactive"}]}
{"compound": "Cathepsin B (Homo sapiens) (from UniProt P07858)", "values": [{"measurement": "Km", "setting": "[2]", "result": 7.6, "unit": "µM"}, {"measurement": "Km", "setting": "[3]", "result": 7.2, "unit": "µM"}, {"measurement": "Km", "setting": "[4]", "result": 7.9, "unit": "µM"}, {"measurement": "Km", "setting": "[5]", "result": 2.2, "unit": "µM"}, {"measurement": "Km", "setting": "[6]", "result": 4.5, "unit": "µM"}, {"measurement": "Km", "setting": "[7]", "result": 2.7, "unit": "µM"}]}
